Source: article PMC6376114, “The Y. bercovieri Anbu crystal structure sheds light on the evolution of highly (pseudo)symmetric multimers” (Journal of molecular biology, 2017)
Where “and” joins values, the source holds several entries; their conditions need not be identical. Equal values may be shown once.

Experiments:
YbATP-grasp [1] = biological target: T1, YbATP-grasp (Yersinia bercovieri, UniProt A0ABP2E091); assay: […]-orthophosphate release, thin-layer chromatography and autoradiography; assay type: biochemical; conditions: 50 mM Tris pH 7.5, 150 mM KCl, 5 mM MgCl2, 1 mM ATP, RT; labelled compound
T1 construct: gene yberc0001_40; N-terminally His-tagged (pQLinkH), E. coli ER2566 host; 780 kDa, 14-mer by sedimentation equilibrium; gene from the four-gene Anbu operon (ATP-grasp, alphaE, transglutaminase, Anbu)
T1 sequence (A0ABP2E091 1-478): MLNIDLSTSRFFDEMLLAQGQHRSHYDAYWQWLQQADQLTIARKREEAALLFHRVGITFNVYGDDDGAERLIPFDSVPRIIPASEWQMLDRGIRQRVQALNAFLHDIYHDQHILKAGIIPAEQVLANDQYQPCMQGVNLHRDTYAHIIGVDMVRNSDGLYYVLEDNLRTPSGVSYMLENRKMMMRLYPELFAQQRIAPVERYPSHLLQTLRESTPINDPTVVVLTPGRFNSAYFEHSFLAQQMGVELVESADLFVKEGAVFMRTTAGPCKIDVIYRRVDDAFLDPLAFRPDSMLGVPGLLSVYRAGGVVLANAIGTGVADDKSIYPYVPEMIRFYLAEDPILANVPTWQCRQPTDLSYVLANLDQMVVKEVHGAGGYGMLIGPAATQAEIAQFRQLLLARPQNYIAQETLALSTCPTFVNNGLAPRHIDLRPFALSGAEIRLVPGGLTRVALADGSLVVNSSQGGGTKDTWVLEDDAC

YbATP-grasp [2] = biological target: T1, YbATP-grasp; assay: differential scanning fluorimetry (thermofluor); assay type: binding; conditions: strong destabilization in presence of ATP; shift size not given
[3] = biological target: ATP-grasp protein encoded in the Y. bercovieri Anbu operon, N-terminally His-tagged (Yersinia bercovieri); assay: AUC; sedimentation equilibrium of YbATP-grasp at 4000, 7000 and 9000 rpm, buffer D in the reference sector, global fit (SEDPHAT)
[4] = biological target: Yersinia bercovieri Anbu (ancestral beta subunit), V14A/G107H variant (Yersinia bercovieri); assay: AUC; sedimentation velocity, 40,000 rpm, 20 °C, buffer D, continuous c(s) distribution model (SEDFIT)
[5] = biological target: Yersinia bercovieri Anbu (ancestral beta subunit), V14A/G107H variant (Yersinia bercovieri); assay: AUC; sedimentation equilibrium of YbAnbu at 4000, 7000 and 9000 rpm, buffer B in the reference sector, global fit (SEDPHAT)
[6] = biological target: Yersinia bercovieri Anbu (ancestral beta subunit), V14A/G107H variant (Yersinia bercovieri); assay: SEC; Superose 6 30/100 column, 0.5 ml/min, buffer D (50 mM Tris pH 7.5, 300 NaCl, 1 mM EDTA); calibrated with BioRad standards, yeast 20S and EcHslV
[7] = biological target: Yersinia bercovieri Anbu (ancestral beta subunit), V14A/G107H variant (Yersinia bercovieri); assay: crystal structure; sitting drop vapor diffusion, 100 mM BIS-TRIS propane/HCl pH 6.7-7.1, 200 mM Na2SO4, 18% PEG 3350, 7.5% ethylene glycol; space group P21, 2.5 Å, two 14-mers in the asymmetric unit

Nc1ncnc2c1ncn2[C@@H]1O[C@H](COP(=O)(O)OP(=O)(O)OP(=O)(O)O)[C@@H](O)[C@H]1O [ATP]
32P-orthophosphate release, thin-layer chromatography and autoradiography (YbATP-grasp [1]): The YbATP-grasp protein led to robust production of orthophosphate | differential scanning fluorimetry (thermofluor) (YbATP-grasp [2]): indicated strong destabilization of YbATP-grasp in the presence of ATP, but not ADP

ATP-grasp protein encoded in the Y. bercovieri Anbu operon, N-terminally His-tagged (natural protein)
stoichiometry N [3]: 14

Yersinia bercovieri Anbu (ancestral beta subunit), V14A/G107H variant (natural protein)
stoichiometry N [4]: 12 | stoichiometry N [5]: 14 | stoichiometry N [6]: 9 and 5 and 14 | stoichiometry N [7]: 14
